Test results taken from US20170050988A1, “DOTAM DERIVATIVES FOR THERAPEUTIC USE” (priority 2013, published 2017).
Converted amounts (≈) assume the structure as drawn. “Also recorded” adds a separate entry of the source. Starred links: 1 amine or outer side, 2 acyl side, 3 side chain; linkers in the order of their positions; H or OH if unused. Positions of bridges follow the written chain, without caps; N, C: chain ends. Non-standard residues stand in square brackets, D forms with d. Residues, ends and D or L forms follow the SMILES beside them. Chains are numbered I, II in the order given. *: point of attachment. X1 = CN1/C(=C/C=C/C=C/C2=[N+](CCCCCC(=O)NCCOCCOCCNC(=O)CN3CCN(CC(=O)NCCOCCOCCN[*:1])CCN(CC(=O)NCCOCCOCCN[*:3])CCN(CC(=O)NCCOCCOCCN[*:2])CC3)c3ccc4ccccc4c3C2(C)C)C(C)(C)c2c1ccc1ccccc21; X4 = CN1/C(=C/C=C/C=C/C2=[N+](CCCCCC(=O)NCCOCCOCCN*)c3ccc4ccccc4c3C2(C)C)C(C)(C)c2c1ccc1ccccc21; Sta = CC(C)C[C@H](N)[C@@H](O)CC(=O)O; Isovaleryl = CC(C)CC(=O)*

Key:
in vivo = conditions: male, C57BL/6J, mouse, in vivo
Description: (§1) Measurement of In Vivo Half Life of Compounds in Mice
(§2) Male C57 BL/6J mice aged 10 weeks were purchased from Harlan Laboratories (Blackthorn, Bicester, UK). Mice were housed in groups of 6 in individually vented cages, maintained at 21±2° C. on a 12-hour light/dark cycle and with food provided ad libitum. All experimental protocols were performed in compliance with the UK Animals (Scientific Procedures) Act 1986 regulations for the handling and use of laboratory animals (Home Office project license PPL no: 70/7288).
(§3) One hundred nanomoles of each of the compounds were injected into the intra-articular space following induction of anaesthesia by gaseous anaesthetic (2% isofluorane and O2). Planar fluorescence images of the knee joints was captured at the time points indicated by capturing the emission at 700 nm for 1 min after exposure at 630 nm under gaseous anaesthesia (2.5% isofluorane and O2) in a Kodak In Vivo FX Pro (Carestream, Woodbridge, USA). Planar X-ray images were obtained by exposure to X-rays for 20 seconds for co-registration purposes.
(§4) To calculate the half lives of the compounds in the joint, fluorescence images were analysed using the Carestream MI software (version 5.1). Circular regions of interest (ROI) of 25 pixels in diameter were defined to encompass the knee joint, which was defined by co-registration of X-ray images. The mean fluorescence intensity (MFI) of the ROI was obtained. Fluorescence images shown are false coloured using the rainbow spectrum, with purple being the lowest value and red being the highest value, and the range indicated in the figures. […] All statistical analysis was carried out using the Prism Software (Graphpad, La Jolla, USA).
(§5) We further evaluated the binding capacity of the probes to cartilage in vivo using optical imaging. 0.1 μmol of each of the compounds were injected intra-articularly into the knees of mice, and in vivo fluorescent microscopy and X-ray were used to quantify localization and retention. The decay in signal was fitted to a two-phase exponential decay model to describe the rapid clearance of unbound probe from the joint and the slow clearance of bound probe from the cartilage (n=5).

knee joints of mice = assay: In vivo half life / retention of Cy5.5 probes in mouse knee joints (optical imaging)
Description: as §1, §2, §3, §4, §5

Cathepsin D = molecular target: T1, Cathepsin D (Homo sapiens, UniProt P07339); assay: Cathepsin D enzyme assay; assay type: biochemical; conditions: purified Cathepsin D, pH 4.5, 37° C.; read-out: IC50
T1 construct: purchased Biomol Se-199
Description: For quantification of Cathepsin D inhibitory activity, an enzymatic assay was used that measures the turnover of a quenched, fluorescenctly-labeled, Cathepsin D-cleavable, peptide substrate over time.
Specifically, 13 ng of purified Cathepsin D enzyme (Biomol; Cat.No. Se-199) was administered per well of a 96 well plate, substance/inhibitor of interest was added and the mixture incubated for 10 min. at 37° C. Then, the enzymatic reaction was started by addition of fluorescenctly-labeled, Cathepsin D-Substrat ([…] (7-Methoxycoumarin-4-yl)-acetyl-Pro-Leu-Gly-Leu-(3 [2,4-dinitrophenyl]-L-2,3-diaminopropionyl)-Ala-Arg-NH2 (Bachem M-1895). The reaction volume amounts to 30 μl and contains 50 mM acetic acid, 200 mM NaCl and 0.003% Brij 35 and was adjusted to pH 4.5 with acetic acid. By cleavage of the peptide chain, the […] is released and the emission of fluorescence dye is measured using excitation/emission wavelengths ([…]) on a Tecan Spectrafluor Plus—instrument at 37° C. for 10 min. For the determination of the compound dose response, a 10 mM DMSO stock solution was diluted and tested in a ten-point, three-fold dilution series run in duplicate beginning at 30 μM final concentration. Data were analyzed using a four-parameter curve fit with a fixed minimum and maximum experimentally defined as the average positive and negative controls on each plate.

[1] = system: pig articular cartilage explants; assay: Ex vivo GAG release model with pig articular cartilage explants; assay type: cell-based; conditions: explants pre-incubated with 1 μM inhibitor 24 h, then washed
[2] = system: pig articular cartilage explants; assay: Ex vivo binding assay with pig articular cartilage explants; conditions: 5 μM probe, 24 h incubation, washed; integrated fluorescence
Description: To evaluate the cartilage targeting affinities of these five DOTAM-derived compounds, we performed an ex vivo binding assay of these Cy 5.5-labeled probes with pig articular cartilage explants. In these ex vivo experiments, whole-depth pig articular cartilage blocks were incubated with 5 μM of each probe for 24 h, washed 3 times for 10 min each with PBS buffer at 37° C. to remove non-binding probes, then imaged using fluorescent microscopy. The intensity of the near infrared fluorescent signal from Cy 5.5 presents the relevant amount of these probes remaining in the cartilage.

[3] = Solubility in phosphate buffer; assay type: physicochemical; conditions: phosphate buffer at pH 7.4
[4] = 100 nmol, First Half Life (h), 100 nmol intra-articular, mouse knee, two phase decay fit of fluorescence, fast half life (t1), loss from the joint space
[5] = 100 nmol, Terminal Half Life (h), 100 nmol intra-articular, mouse knee, two phase decay fit, slower half life (t2, t1/2beta), loss of cartilage-bound compound

T1 sequence (P07339 65-412): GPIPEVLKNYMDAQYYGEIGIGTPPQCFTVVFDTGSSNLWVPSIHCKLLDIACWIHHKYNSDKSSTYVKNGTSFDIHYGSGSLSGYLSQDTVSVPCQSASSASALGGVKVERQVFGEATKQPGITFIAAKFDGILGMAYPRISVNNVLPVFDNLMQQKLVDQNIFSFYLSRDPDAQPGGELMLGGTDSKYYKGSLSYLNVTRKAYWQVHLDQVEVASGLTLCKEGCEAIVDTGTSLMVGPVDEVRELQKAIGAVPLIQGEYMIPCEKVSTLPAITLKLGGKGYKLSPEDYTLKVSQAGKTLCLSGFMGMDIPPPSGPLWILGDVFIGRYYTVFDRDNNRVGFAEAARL

CC(=O)N[C@@H](Cc1ccc(O)cc1)C(=O)N[C@@H](CCCNC(=N)N)C(=O)N[C@@H](CC(C)C)C(=O)NCC(=O)N[C@@H](CCCNC(=N)N)C(=O)N[C@@H](Cc1c[nH]c2ccccc12)C(=O)NCCOCCOCCNC(=O)CCCCC[N+]1=C(/C=C/C=C/C=C2/N(C)c3ccc4ccccc4c3C2(C)C)C(C)(C)c2c1ccc1ccccc21 [HHY-258B, AcYRLGRW-Cy5.5] (Ac-YRLGRW-X4)
half-life (in vivo; First Half Life (h)): 2 h | half-life (in vivo; Terminal Half Life (h)): 35 h

CC(=O)N[C@@H](Cc1c[nH]c2ccccc12)C(=O)N[C@@H](Cc1ccc(O)cc1)C(=O)N[C@@H](CCCNC(=N)N)C(=O)NCC(=O)N[C@@H](CCCNC(=N)N)C(=O)N[C@@H](CC(C)C)C(=O)NCCOCCOCCNC(=O)CCCCC[N+]1=C(/C=C/C=C/C=C2/N(C)c3ccc4ccccc4c3C2(C)C)C(C)(C)c2c1ccc1ccccc21 [HHY-259B, AcWYRGRL-Cy 5.5] (Ac-WYRGRL-X4)
half-life (in vivo; [4]): 2.3 h | half-life (in vivo; [5]): 205 h

CC(=O)N[C@@H](Cc1c[nH]c2ccccc12)C(=O)N[C@@H](Cc1ccc(O)cc1)C(=O)N[C@@H](CCCNC(=N)N)C(=O)NCC(=O)N[C@@H](CCCNC(=N)N)C(=O)N[C@@H](CC(C)C)C(=O)NCCOCCOCCNC(=O)CN1CCN(CC(=O)NCCOCCOCCNC(=O)CCCCC[N+]2=C(/C=C/C=C/C=C3/N(C)c4ccc5ccccc5c4C3(C)C)C(C)(C)c3c2ccc2ccccc32)CCN(CC(=O)NCCOCCOCCNC(=O)[C@H](CC(C)C)NC(=O)[C@H](CCCNC(=N)N)NC(=O)CNC(=O)[C@H](CCCNC(=N)N)NC(=O)[C@H](Cc2ccc(O)cc2)NC(=O)[C@H](Cc2c[nH]c3ccccc23)NC(C)=O)CCN(CC(=O)NCCOCCOCCNC(=O)[C@H](CC(C)C)NC(=O)[C@H](CCCNC(=N)N)NC(=O)CNC(=O)[C@H](CCCNC(=N)N)NC(=O)[C@H](Cc2ccc(O)cc2)NC(=O)[C@H](Cc2c[nH]c3ccccc23)NC(C)=O)CC1 [HHY-290, (AcWYRGRL)3-DOTA-Cy5.5] (I: Ac-WYRGRL / II: Ac-WYRGRL / III: Ac-WYRGRL; linker I:C-II:C-III:C via X1)
half-life (in vivo; [4]): 8.9 h | half-life (in vivo; [5]): 1280 h | retained initial signal (knee joints of mice; 8 days after intra-articular injection, 0.1 μmol, mouse knee): 40%

CC(=O)N[C@@H](Cc1ccc(O)cc1)C(=O)N[C@@H](CCCNC(=N)N)C(=O)N[C@@H](CC(C)C)C(=O)NCC(=O)N[C@@H](CCCNC(=N)N)C(=O)N[C@@H](Cc1c[nH]c2ccccc12)C(=O)NCCOCCOCCNC(=O)CN1CCN(CC(=O)NCCOCCOCCNC(=O)CCCCC[N+]2=C(/C=C/C=C/C=C3/N(C)c4ccc5ccccc5c4C3(C)C)C(C)(C)c3c2ccc2ccccc32)CCN(CC(=O)NCCOCCOCCNC(=O)[C@H](Cc2c[nH]c3ccccc23)NC(=O)[C@H](CCCNC(=N)N)NC(=O)CNC(=O)[C@H](CC(C)C)NC(=O)[C@H](CCCNC(=N)N)NC(=O)[C@H](Cc2ccc(O)cc2)NC(C)=O)CCN(CC(=O)NCCOCCOCCNC(=O)[C@H](Cc2c[nH]c3ccccc23)NC(=O)[C@H](CCCNC(=N)N)NC(=O)CNC(=O)[C@H](CC(C)C)NC(=O)[C@H](CCCNC(=N)N)NC(=O)[C@H](Cc2ccc(O)cc2)NC(C)=O)CC1 [HHY-293, (AcYRLGRW)3-DOTA-Cy5.5] (I: Ac-YRLGRW / II: Ac-YRLGRW / III: Ac-YRLGRW; linker I:C-II:C-III:C via X1)
half-life (in vivo; First Half Life (h)): 3 h | half-life (in vivo; Terminal Half Life (h)): 19 h | Terminal Half Life (knee joints of mice; male, C57BL/6J, mouse, in vivo): 18.75 h

CC(=O)N[C@@H](Cc1c[nH]c2ccccc12)C(=O)N[C@@H](Cc1ccc(O)cc1)C(=O)N[C@@H](CCCNC(=N)N)C(=O)NCC(=O)N[C@@H](CCCNC(=N)N)C(=O)N[C@@H](CC(C)C)C(=O)NCCOCCOCCNC(=O)CN1CCN(CC(=O)NCCOCCOCCNC(=O)C[C@H](O)[C@H](CC(C)C)NC(=O)[C@H](C)NC(=O)C[C@H](O)[C@H](CC(C)C)NC(=O)[C@@H](NC(=O)[C@@H](NC(=O)CC(C)C)C(C)C)C(C)C)CCN(CC(=O)NCCOCCOCCNC(=O)[C@H](CC(C)C)NC(=O)[C@H](CCCNC(=N)N)NC(=O)CNC(=O)[C@H](CCCNC(=N)N)NC(=O)[C@H](Cc2ccc(O)cc2)NC(=O)[C@H](Cc2c[nH]c3ccccc23)NC(C)=O)CCN(CC(=O)NCCOCCOCCNC(=O)[C@H](CC(C)C)NC(=O)[C@H](CCCNC(=N)N)NC(=O)CNC(=O)[C@H](CCCNC(=N)N)NC(=O)[C@H](Cc2ccc(O)cc2)NC(=O)[C@H](Cc2c[nH]c3ccccc23)NC(C)=O)CC1 [HHY-299, (AcWYRGRL)3-DOTA-Pepstatin A]
IC50 (Cathepsin D): 3.3 nM | inhibition of GAG release ([1]; 24 hours after stimulation at pH 5.0): 34% | inhibition of GAG release ([1]; 48 hours after stimulation at pH 5.0): 18%

CC(=O)N[C@@H](Cc1c[nH]c2ccccc12)C(=O)N[C@@H](Cc1ccc(O)cc1)C(=O)N[C@@H](CCCNC(=N)N)C(=O)NCC(=O)N[C@@H](CCCNC(=N)N)C(=O)N[C@@H](CC(C)C)C(=O)NCCOCCOCCNC(=O)CN1CCN(CC(=O)NCCOCCOCCN)CCN(CC(=O)NCCOCCOCCN)CCN(CC(=O)NCCOCCOCCNC(=O)CCCCC[N+]2=C(/C=C/C=C/C=C3/N(C)c4ccc5ccccc5c4C3(C)C)C(C)(C)c3c2ccc2ccccc32)CC1 [HHY-312, AcWYRGRL-DOTA-Cy5.5]
half-life (in vivo; First Half Life (h)): 4 h | half-life (in vivo; Terminal Half Life (h)): 210 h | Terminal Half Life (knee joints of mice; male, C57BL/6J, mouse, in vivo): 210.7 h | fold mean increase of probe accumulation in cartilage vs non-targeted HHY-306 [2]: 11.2 fold | fold mean increase of probe accumulation in cartilage vs scrambled HHY-322 [2]: 6.0 fold

CC(=O)N[C@@H](Cc1ccc(O)cc1)C(=O)N[C@@H](CCCNC(=N)N)C(=O)N[C@@H](CC(C)C)C(=O)NCC(=O)N[C@@H](CCCNC(=N)N)C(=O)N[C@@H](Cc1c[nH]c2ccccc12)C(=O)NCCOCCOCCNC(=O)CN1CCN(CC(=O)NCCOCCOCN)CCN(CC(=O)NCCOCCOCCN)CCN(CC(=O)NCCOCCOCCNC(=O)CCCCCN2c3ccc4ccccc4c3C(C)(C)C2/C=C/C=C/C=C2/N(C)c3ccc4ccccc4c3C2(C)C)CC1 (some centres unmarked) [HHY-322, AcYRLGRW-DOTA-Cy5.5]
half-life (in vivo; First Half Life (h)): 1.67 h | half-life (in vivo; Terminal Half Life (h)): 13 h | Terminal Half Life (knee joints of mice; male, C57BL/6J, mouse, in vivo): 12.5 h

CC(C)CC(=O)N[C@H](C(=O)N[C@H](C(=O)N[C@@H](CC(C)C)[C@@H](O)CC(=O)N[C@@H](C)C(=O)N[C@@H](CC(C)C)[C@@H](O)CC(=O)NCCOCCOCCNC(=O)CN1CCN(CC(=O)NCCOCCOCCN)CCN(CC(=O)NCCOCCOCCN)CCN(CC(=O)NCCOCCOCCN)CC1)C(C)C)C(C)C [HHY-325]
IC50 (Cathepsin D): 2.9 nM

CC(C)CC(=O)N[C@H](C(=O)N[C@H](C(=O)N[C@@H](CC(C)C)[C@@H](O)CC(=O)N[C@@H](C)C(=O)N[C@@H](CC(C)C)[C@@H](O)CC(=O)O)C(C)C)C(C)C [Pepstatin A, reference compound] (Isovaleryl-VV[Sta]A[Sta]-OH)
solubility [3]: 820 µg/mL (≈ 1200 µM) | effect on acid-stimulated GAG release / degradation (FIG. 3) ([1]; pH 5.0): no effect at all; also recorded: not effective

AcNH-DOTA-Cy 5.5 [HHY-306]
First Half Life (knee joints of mice; mouse, in vivo): 0.5 h | Terminal Half Life (knee joints of mice; mouse, in vivo): 9.8 h
